Laboratory results: patent publication US12152088B2, “Co-assembly peptides, nanostructures, and methods of making and using the same” (University of Florida Research Foundation, Incorporated, priority 2016, dated 2024)

Assays:
Format in all cases: physicochemical
[1] = Circular dichroism (secondary structure); settings: peptide incubated alone; CD maxima at 220 nm, minima at 200 nm
Description: Circular Dichroism. Circular Dichroism was performed on an AVIV 202 spectrometer. Peptides were prepared in 1× PBS at 500 μM, unless stated otherwise. Samples were run 3 times, averaged, and converted to mean residue ellipticity. All data reported was for dynode values <500 V.

[2] = Macroscopic hydrogel formation; settings: aqueous buffered solutions of 12 mM
Description: Macroscopic Hydrogel Formation. A 12 mM stock solution of CATCH(−) was prepared by dissolving dry peptide in 1× PBS and adjusting the pH to ˜7.6 with ammonium bicarbonate (Fisher). A 12 mM stock solution of CATCH(+) was prepared by dissolving dry peptide in 1×PBS and adjusting the pH to ˜7.2 with hydrochloric acid (0.5 N Fisher). CATCH peptide stock solutions were combined at a 1:1 (v/v) ratio in a 0.2 mL glass vial (Thermo), and the vial was gently swirled for 2 min until the hydrogel formed. The hydrogel was stained with red food coloring to aid visualization. Hydrogel images were recorded using a digital still camera.

[3] = Nanofiber sedimentation, fusion protein integration into CATCH nanofibers; settings: 500 μM CATCH(4/4) or CATCH(6/6) nanofibers
Description: Briefly, 500 μM CATCH(4/4) nanofiber sedimentation in the presence of (FIG. 42A) ThT, (FIG. 42B) CATCH(6-)GFP, (FIG. 42C) mCATCH(6-)GFP. […] 500 μM CATCH(6/6) nanofiber sedimentation in the presence of (FIG. 42E) ThT, (FIG. 42F) CATCH(6-) GFP, (FIG. 42G) mCATCH(6-)GFP.

[4] = Protein incorporation / retention in macroscopic hydrogels
Description: Protein Incorporation into Macroscopic Hydrogels. Hydrogels were prepared as described above, except 1.5 μM CATCH(−)GFP or mCATCH(−)GFP was added to the 12 mM CATCH(−) solution. Immediately after hydrogel formation, fluorescence was visualized by placing the glass vials on a SafeImager 2.0 transilluminator (Invitrogen) and recording images with a digital still camera. 800 μL of PBS was then carefully overlaid on top of hydrogel. The samples were then incubated for 48 hours to evaluate the protein incorporation within the hydrogel. At various time points, fluorescence in the buffer supernatant was visualized by placing the glass vials on a SafeImager 2.0 transilluminator (Invitrogen) and recording images with a digital still camera. At the end-point, buffer supernatant was carefully removed by decanting and fluorescence was visualized by placing the glass vials on a SafeImager 2.0 transilluminator (Invitrogen) and recording images with a digital still camera.

Row | Substance | secondary structure [1] | flow behaviour / hydrogel formation [2] | integration into CATCH nanofibers [3] | hydrogel fluorescence after incubation ([4]; CATCH hydrogels under volumetric excess of 1× PBS for 48 h) | GFP in the buffer layer over hydrogels ([4]; excess buffer, up to 48 h)
1 | Ac-QQKFKFKFKQQ-Am (Ac-QQKFKFKFKQQ-NH2) [CATCH(+)] | predominantly random coil | free flowing |  |  | 
2 | Ac-EQEFEFEFEQE-Am (Ac-EQEFEFEFEQE-NH2) [CATCH(−)] | predominantly random coil | free flowing | integrates into both CATCH(6/6) and CATCH(4/4) nanofibers |  | 
3 | CATCH(−)GFP: recombinant fusion of CATCH(−) and superfolder green fluorescent protein (GFP) |  |  |  | retained their fluorescence | no GFP was detected
